Target: human melanocortin 1 receptor (hMC1-r transfected COS-7 cells) (human) (UniProt Q01726)
Test: Scatchard analysis on MC1-r transfected COS7 cells, culture supernatant with up to 30 nM AP-Ag

Substance: AP-Ag, truncated agouti protein containing the cysteine-rich domain tagged with alkaline phosphatase at its N-terminal (from UniProt Q03288) (ligand)
- Kd: 0.02 to 0.03 µM
